{"source": "paper PMC5041982", "about": "(2016)", "binders": {"B1": {"name": "STAT3 127-722 (protein)", "chain": "GQANHPTAAVVTEKQQMLEQHLQDVRKRVQDLEQKMKVVENLQDDFDFNYKTLKSQGDMQDLNGNNQSVTRQKMQQLEQMLTALDQMRRSIVSELAGLLSAMEYVQKTLTDEELADWKRRQQIACIGGPPNICLDRLENWITSLAESQLQTRQQIKKLEELQQKVSYKGDPIVQHRPMLEERIVELFRNLMKSAFVVERQPCMPMHPDRPLVIKTGVQFTTKVRLLVKFPELNYQLKIKVCIDKDSGDVAALRGSRKFNILGTNTKVMNMEESNNGSLSAEFKHLTLREQRCGNGGRANCDASLIVTEELHLITFETEVYHQGLKIDLETHSLPVVVISNICQMPNAWASILWYNMLTNNPKNVNFFTKPPIGTWDQVAEVLSWQFSSTTKRGLSIEQLTTLAEKLLGPGVNYSGCQITWAKFCKENMAGKGFSFWVWLDNIIDLVKKYILALWNEGYIMGFISKERERAILSTKPPGTFLLRFSESSKEGGVTFTWVEKDISGKTQIQSVEPYTKQQLNNMSFAEIIMGYKIMDATNILVSPLVYLYPDIPKEEAFGKYCRPESQEHPEADPGSAAPYLKTKFICVTPTTCSNTI"}}, "molecular_target": "T1, EGFR pY1068 phosphododecapeptide dodecapeptide surrounding Y1068 (Homo sapiens, UniProt P00533)", "T1 chain": "LPVPE[pY]INQSVP", "assay": "microscale thermophoresis", "note": "Where no end group is shown, it is not given here. [ ]: non-standard residue; d: D form. pY = N[C@@H](Cc1ccc(OP(=O)(O)O)cc1)C(=O)O", "data": [{"binder": "B1", "values": [{"measurement": "Kd", "value": 1.1, "unit": "nM"}]}]}
